Holding throughout (assay type): cell-based
Assay [1] deals with normal human dermal fibroblast (NHDF). The experiment in a line: TGFβ1-induced fibrosis of human dermal fibroblasts, αSMA western blot. Here is the method: (1) Human dermal fibroblasts (normal human dermal fibroblast, NHDF) were seeded (1.0×10^5 cells/well) in a 6-well plate and incubated in FBM-2 (fibroblast growth medium-2, CC-3131, Lonza) medium for 24 hours in an incubator at 37° C. 5% CO2.
(2) After replacing with serum-free medium, the medium was incubated for 24 hours.
(3) In this regard, under conditions in which fibrosis was induced by treatment with TGFβ1 (10 ng/ml), each well of the plate was treated with the composition of the present disclosure based on Preparation Example 2 but with rhHAPLN1 protein content of 0, 3, 10, 30, and 100 ng/ml and 100 μg/mL and 200 μg/mL of pirfenidone (Selleckchem), a commercially available anti-fibrotic agent, respectively, and incubated for 24 hours.
(4) Afterwards, each sample was washed twice with phosphate buffered saline (PBS, pH 7.2), and then the expression level of αSMA, a marker for myofibroblasts, was confirmed by western blot.
(In western blotting, separated proteins are transferred to a membrane and probed.)

Assay [2] has as its system human cardiac microvascular endothelial cell (HCMEC). In words: TGFβ1-induced fibrosis of human cardiac microvascular endothelial cells, αSMA western blot. Here is the method: (1) Primary human cardiac microvascular endothelial cell (HCMEC; ScienCell, #6000) were seeded (5.7×10^4 cells/well) in a 6-well plate according to the experimental scheme of FIG. 4A and incubated in Endothelial cell medium (ScienCell) for 24 hours in an incubator at 37° C. 5% CO2.
(2) The plates were then treated with TGFβ1 (5 ng/ml) to induce fibrosis and incubated for 3 days.
(3) Afterwards, each well of the plate was then treated with the composition of the present disclosure at rhHAPLN1 protein content of 0, 3, 10, 30, and 100 ng/ml and pirfenidone 100 μg/mL and 200 μg/mL, respectively, and incubated for 3 days.
(4) Each sample was then treated with cell lysis buffer and harvested.
(5) Western blotting was performed on the samples. Here, anti-αSMA Ab (Abcam, ab7817), anti-GAPDH Ab (Santa Cruz, sc-32233) were used as primary antibodies and HRP-conjugated anti-mouse IgG Ab (CST, #7076) as secondary antibodies to confirm the protein expression levels of αSMA and GAPDH.

The test system of assay [3] is renal proximal tubule epithelial cell (RPTEC). In words: Age-induced fibrosis of RPTEC (passage 11), αSMA immunofluorescence. The note with it: aged cells (11th passage culture), 72 hours. Here is the method:
(1) Renal proximal tubule epithelial cell ([…]) in 12-well plates and cultured in complete renal epithelial cell medium (ATCC PCS-400-030+ATCC PCS-400-040) in an incubator at 37° C. 5% CO2 for 24 hours.
(2) Subsequently, the plates were then treated with the composition of the present disclosure (rhHAPLN1 protein content of 0, 10, 20, 50 and 100 ng/ml) and pirfenidone 0.2 mg/mL (200 μg/mL), respectively, and cultured for 72 hours.
(3) Afterwards, each well was washed twice with PBS, then treated with 4% paraformaldehyde and fixed for 1 hour.
(4) After washing four times with 1×PBS, the wells were treated with 1×PBST (1×PBS+0.1% Triton X-100) containing 1% BSA and blocked for 2 hours.
(5) Primary antibody against αSMA (Abcam ab7817) was diluted 1:200 in 1×PBSTdp and treated and incubated overnight at 4° C.
(6) The next day, the blot was washed four times with 1×PBST.
(7) After treatment with secondary antibody (anti-mouse IgG Alexa Fluor™ 488 1:500 (Invitrogen, A28175)) and DAPI 1:2000 (Invitrogen, D1306), the cells were incubated at room temperature for 1 hour.
(8) Afterwards, 50 ul of Vectashield (Vectorlabs, H-1000) was added, covered with a coverslip, and photographed with a fluorescence microscope.

This note sets out measurements from US20240350583A1, “COMPOSITION FOR PREVENTING OR TREATING FIBROTIC DISEASES, COMPRISING HAPLN1” (Chung Ang University Industry Academic Cooperation …, priority 2021, published 2024).

In the case of `Cc1ccc(=O)n(-c2ccccc2)c1` [pirfenidone, reference compound], in assay [1] (pirfenidone 200 μg/mL, TGFβ1 10 ng/ml), the “expression level of αSMA at 200 μg/mL versus 100 μg/mL” value is reported as “higher expression level of αSMA than 100 μg/mL”. Besides, the “optimal anti-fibrotic concentration (assumed)” value in assay [1] (αSMA, TGFβ1 10 ng/ml) was found to be 100 µg/mL. For the same molecule, the “expression level of αSMA compared to composition that does not include rhHAPLN1 protein” value in assay [2] (pirfenidone 100 and 200 μg/mL) is given as “higher than when treated with a composition that does not include rhHAPLN1 protein”. The “αSMA stained fluorescent areas (FIG. 10B)” value in assay [3] (pirfenidone 0.2 mg/ml) was “fewer stained fluorescent areas appeared”.

B1: rhHAPLN1: recombinant human HAPLN1 protein of SEQ ID NO: 1 produced in CHO-K1 cells, stabilized in acetic acid buffer, sucrose, PS80, pH 5.0 (protein, listed as Homo sapiens)
chain: MKSLLLLVLISICWADHLSDNYTLDHDRAIHIQAENGPHLLVEAEQAKVFSHRGGNVTLPCKFYRDPTAFGSGIHKIRIKWTKLTSDYLKEVDVFVSMGYHKKTYGGYQGRVFLKGGSDSDASLVITDLTLEDYGRYKCEVIEGLEDDTVVVALDLQGVVFPYFPRLGRYNLNFHEAQQACLDQDAVIASFDQLYDAWRGGLDWCNAGWLSDGSVQYPITKPREPCGGQNTVPGVRNYGFWDKDKSRYDVFCFTSNFNGRFYYLIHPTKLTYDEAVQACLNDGAQIAKVGQIFAAWKILGYDRCDAGWLADGSVRYPISRPRRRCSPTEAAVRFVGFPDKKHKLYGVYCFRAYN
Regarding B1, in assay [1] (TGFβ1 10 ng/ml, all rhHAPLN1 contents 3, 10, 30, 100 ng/ml, 24 hours), the “expression level of αSMA compared to composition that does not include rhHAPLN1 protein (FIG. 1B)” value is on record as “significantly lower”. For the same molecule, the “anti-fibrotic action from αSMA western blot band, compared to pirfenidone (FIG. 1A)” value in assay [1] (TGFβ1 10 ng/ml, pirfenidone 100 and 200 μg/mL) was “much better anti-fibrotic action than pirfenidone”. Moreover, the “rhHAPLN1 protein content showing the most excellent anti-fibrotic efficacy” value was found to be 100 ng/mL in assay [1] (TGFβ1 10 ng/ml, αSMA) and 3 ng/mL in assay [2] (αSMA). The “anti-fibrotic efficacy higher than pirfenidone at 100 μg/mL” value in assay [1] (rhHAPLN1 100 ng/ml, αSMA) is 25%. Besides, in assay [2] (TGFβ1 5 ng/ml 3 days, then rhHAPLN1 3, 10, 30, 100 ng/ml 3 days), the “expression level of αSMA compared to composition that does not include rhHAPLN1 protein (FIG. 4C)” value is recorded as “significantly lower”. For the same molecule, the “anti-fibrotic action from αSMA western blot band, compared to pirfenidone (FIG. 4B)” value in assay [2] (all rhHAPLN1 contents, pirfenidone 100 and 200 μg/mL) is given as “much better anti-fibrotic action compared to pirfenidone”. Further, in assay [3] (rhHAPLN1 50 ng/ml and 100 ng/ml), the “αSMA stained fluorescent areas compared to composition without rhHAPLN1 (FIG. 10B)” value is reported as “fewer stained fluorescent areas appeared”.
